Measured values reported in patent publication US20160266124A1 (published 2016).
One block for each binder: values may come before it.

Target: 15F12
Assay: SPR

Kd: 0.3 nM
B1: pHP1 (other)
chain: VDSGNDVTDIADDGCPKPPEIAHGYVEHSVRYQCKNYYKLRTEGDGVYTLNNEKQWINKAVGDKLPECEAVCGKPKNPANPVQRILGGHLDAKGSFPWQAKMVSHHNLTTGATLINEQWLLTTAKNLFLNHSENATAKDIAPTLTLYVGKKQLVEIEKVVLHPNYSQVDIGLIKLKQKVSVNERVMPICLPSKDYAEVGRVGYVSGWGRNANFKFTDHLKYVMLPVADQDQCIRHYEGSTVPEKKTPKSPVGVQPILNEHTFCAGMSKYQEDTCYGDAGSAFAVHDLEEDTWYATGILSFDKSCAVAEYGVYVKVTSIQDWVQKTIAEN

Kd: 0.3 nM
B2: pHP2 (other)
chain: VDSGNDVTDIADDGCPKPPEIAHGYVEHSVRYQCKNYYKLRTEGDGVYTLNDKKQWINKAVGDKLPECEADDGCPKPPEIAHGYVEHSVRYQCKNYYKLRTEGDGVYTLNNEKQWINKAVGDKLPECEAVCGKPKNPANPVQRILGGHLDAKGSFPWQAKMVSHHNLTTGATLINEQWLLTTAKNLFLNHSENATAKDIAPTLTLYVGKKQLVEIEKVVLHPNYSQVDIGLIKLKQKVSVNERVMPICLPSKDYAEVGRVGYVSGWGRNANFKFTDHLKYVMLPVADQDQCIRHYEGSTVPEKKTPKSPVGVQPILNEHTFCAGMSKYQEDTCYGDAGSAFAVHDLEEDTWYATGILSFDKSCAVAEYGVYVKVTSIQDWVQKTIAENHHHHHH
